Reference: paper PMC2890295 (Biochemistry, 2010)

Substrate: O=S(O)O
Assay: purified protein
Format: biochemical, Homo sapiens
Settings: pH 8.0, cytochrome c as electron acceptor, no added chloride

B1: wt hSO (human sulfite oxidase) (Homo sapiens) (protein)
chain: ESTHIYTKEEVSSHTSPETGIWVTLGSEVFDVTEFVDLHPGGPSKLMLAAGGPLEPFWALYAVHNQSHVRELLAQYKIGELNPEDKVAPTVETSDPYADDPVRHPALKVNSQRPFNAEPPPELLTENYITPNPIFFTRNHLPVPNLDPDTYRLHVVGAPGGQSLSLSLDDLHNFPRYEITVTLQCAGNRRSEMTQVKEVKGLEWRTGAISTARWAGARLCDVLAQAGHQLCETEAHVCFEGLDSDPTGTAYGASIPLARAMDPEAEVLLAYEMNGQPLPRDHGFPVRVVVPGVVGARHVKWLGRVSVQPEESYSHWQRRDYKGFSPSVDWETVDFDSAPSIQELPVQSAITEPRDGETVESGEVTIKGYAWSGGGRAVIRVDVSLDGGLTWQVAKLDGEEQRPRKAWAWRLWQLKAPVPAGQKELNIVCKAVDDGYNVQPDTVAPIWNLRGVLSNAWHRVHVYVSP
  kcat: 27 ± 2 s⁻¹
